The experiment concerns the target photosystem I from Cyanobacterium aponinum 0216 (one monomer of the trimer, 11 protein subunits) (Cyanobacterium aponinum 0216 (endogenous)) (UniProt K9Z0B2). Kind of experiment: cryo-EM structure; single-particle cryo-EM of the purified PSI trimer, C3 symmetry imposed; 30 mM Tricine–NaOH pH 8, 150 mM NaCl, 0.02% DDM; three monomers in the trimer.

As usually defined, the stoichiometry N is a count of units in the complex or per binding partner.

In turn, “photosystem I from Cyanobacterium aponinum 0216 (one monomer of the trimer, 11 protein subunits) (from UniProt K9Z0B2 1-750; K9Z2J7 1-738; K9Z1N0 1-81; K9Z9J3 1-39; K9Z7Y0 1-163) (complex)” returned a stoichiometry N of 3.

The values are drawn from PMC8428864.
